What all share (test): ELISA, 2.5 mM CaCl2
Background: An ELISA detects its analyte on a solid surface through an enzyme-linked reagent.

Experiment [1] deals with T1, SARS-Cov-2 S D614G (SARS-CoV-2, UniProt P0DTC2 16-1213).
T1 construct: also called SARS-CoV-2 S protein (D614G); SARS-COV2 S Protein

Experiment [2] concerns the target T1, SARS-Cov-2 S D614G. This is another data set of the same source.
Experiment [3] has as its target T1, SARS-Cov-2 S D614G. This is another data set of the same source.
Experiment [4] concerns the target T1, SARS-Cov-2 S D614G. This is another data set of the same source.

“And” between values parts separate entries of the source, which are not always exact repeats. Equal entries are not always repeated. Where two headings read alike, the source gives them in different places.

B1: VP019-F2 (multimer fraction F2 of VP019, V-TIM1-1 with V-IGG4-ADC-A-Fc) (Fc fusion)
chain: SVKVGGEAGPSVTLPCHYSGAVTSMCWNRGSCSLFTCQNGIVWTNGTHVTYRKDTRYKLLGDLSRRDVSLTIENTAVSDSGVYCCRVEHRGWFNDMKITVSLEIVGGGGSGGGGSGGGGSKYGPPCPPCPAPEAAGGPSVFLFPPKPKDTLMISRTPEVTCVVVDVSQEDPEVQFNWYVDGVEVHNAKTKPREEQFNSTYRVVSVLTVLHQDWLNGKEYKCAVSNKGLPSSIEKTISKCKGQPREPQVYTLPPSQEEMTKNQVSLTCLVKGFYPSDIAVEWESNGQPENNYKTTPPVLDSDGSFFLYSRLTVDKSRWQEGNVFSCSVMHEALHNHYTQKSLSLSLGK
notes: also called TM-G4-A-DC; VIT-307
One may read the EC50 as the concentration giving half of the maximal effect. Higher therefore signals lower potency in that assay. B1: the EC50 was 0.9 µg/mL and 10.6 nM in experiment [1]; 1.7 µg/mL in experiment [2]; 21.1 nM in experiment [3].

B2: VP025-F4 (fraction 4 of VP025-CT, VP019/VP020 heterodimer, about 78% pure) (Fc fusion)
chain 1: B1 chain
chain 2: ERLCHPCPWEWTFFQGNCYFMSNSQRNWHDSITACKEVGAQLVVIKSAEEQNFLQLQSSRSNRFTWMGLSDLNQEGTWQWVDGSPLLPSFKQYWNRGEPNNVGEEDCAEFSGNGWNDDKCNLAKFWICKKSAASCSGGGGSGGGGSGGGGSKYGPPCPPCPAPEAAGGPSVFLFPPKPKDTLMISRTPEVTCVVVDVSQEDPEVQFNWYVDGVEVHNAKTKPREEQFNSTYRVVSVLTVLHQDWLNGKEYKCAVSNKGLPSSIEKTISKCKGQPREPQVYTLPPSQEEMTKNQVSLTCLVKGFYPSDIAVEWESNGQPENNYKTTPPVLDSDGSFLLYSKLTVDKSRWQEGNVFSCSVMHEALHNHYTQKSLSLSLGK
notes: also called VP025-F4 (78% pure heterodimer)
As to B2, the EC50 in experiment [2] worked out at 0.8 µg/mL; in experiment [3], 10 nM.

B3: VP025-CT (co-transfected product of genes TM-G4-A-DC and CT-G4-B-DC, heterodimer mixture) (Fc fusion)
chain 1: B1 chain
chain 2: B2 chain 2
notes: also called VP025-CT (heterodimer mixture)
B3: the concentration giving a half-maximal response (EC50) in experiment [1] was 6.9 µg/mL and 82.5 nM; in experiment [2], 1.2 µg/mL; in experiment [4], 4 µg/mL and 47.6 nM; in experiment [3] it was 13.8 nM.

B4: VP020 (V-CTLD-1 with V-IGG4-ADC-B-Fc) (Fc fusion)
chain: B2 chain 2
notes: also called CT-G4-B-DC; VIT-308
In the case of B4, the EC50 in experiment [1] is 55.6 µg/mL and 641 nM; in experiment [2] it was 4.5 µg/mL; in experiment [3], 52.5 nM.

Values taken from US20230338465A1 (VITRUVIAE, published 2023).
